Results as given in US20220273830A1, “COMPOUNDS AND METHODS OF USE” (EDINBURGH MOLECULAR IMAGING LIMITED, priority 2019, published 2022).
Several values for one entry are separate records, joined by “and”; a condition that tells them apart may be missing. Equal values may be shown once. Values belong to the compound of their own block, whether it stands above or below them. Positions of bridges follow the written chain, without caps; N, C: chain ends. Residues, ends and D or L forms follow the SMILES beside them. *: point of attachment. DOTA = O=C(O)CN1CCN(CC(=O)O)CCN(CC(=O)*)CCN(CC(=O)O)CC1

How the values were obtained:
[1] = biological target: cMet receptor (Homo sapiens, UniProt P08581); experiment: Competition binding assay by fluorescence polarisation (FP); settings: mean; competition FP vs Cy5-labelled probe 20 nM, cMet receptor 50 nM, PBS pH 7.4 with 0.01% Tween 20
Sequence of cMet receptor (P08581 25-932 limits assumed): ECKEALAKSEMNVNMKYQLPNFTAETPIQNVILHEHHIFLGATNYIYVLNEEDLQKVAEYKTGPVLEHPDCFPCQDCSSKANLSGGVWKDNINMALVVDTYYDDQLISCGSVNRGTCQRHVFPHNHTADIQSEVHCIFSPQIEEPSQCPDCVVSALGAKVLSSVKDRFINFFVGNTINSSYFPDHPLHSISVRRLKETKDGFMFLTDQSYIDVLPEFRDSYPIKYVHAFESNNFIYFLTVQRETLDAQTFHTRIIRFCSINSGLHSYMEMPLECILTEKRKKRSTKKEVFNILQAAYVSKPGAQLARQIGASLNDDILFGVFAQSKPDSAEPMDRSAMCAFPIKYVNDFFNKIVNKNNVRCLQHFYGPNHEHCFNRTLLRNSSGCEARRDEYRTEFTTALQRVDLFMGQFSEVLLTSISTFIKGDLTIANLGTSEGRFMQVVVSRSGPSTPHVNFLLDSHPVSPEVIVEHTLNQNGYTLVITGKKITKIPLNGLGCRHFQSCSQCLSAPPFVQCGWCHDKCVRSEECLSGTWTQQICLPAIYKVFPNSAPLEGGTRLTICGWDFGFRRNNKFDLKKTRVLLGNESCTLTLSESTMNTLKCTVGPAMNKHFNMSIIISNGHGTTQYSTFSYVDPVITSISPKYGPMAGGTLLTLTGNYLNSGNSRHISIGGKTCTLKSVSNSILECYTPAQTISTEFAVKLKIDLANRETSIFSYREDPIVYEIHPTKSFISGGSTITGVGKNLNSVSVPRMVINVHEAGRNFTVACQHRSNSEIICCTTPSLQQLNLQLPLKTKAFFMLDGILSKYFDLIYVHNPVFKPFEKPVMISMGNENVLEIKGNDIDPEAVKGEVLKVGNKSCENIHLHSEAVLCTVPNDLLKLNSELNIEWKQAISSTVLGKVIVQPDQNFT
Method: The half maximal inhibitory concentration (IC50) and dissociation constant (Kd) values were determined by competition fluorescence polarisation (FP) assay for the binding of cMet binding cyclic peptide (unlabelled), cMet-DOTA (Compound 3) and cMet-DOTAGA (Compound 4) to cMet receptor.
The principle of the fluorescence polarisation method can briefly be described as follows:
Monochromatic light passes through a […] polarizing filter and excites fluorescent molecules in the sample. Only those molecules that are oriented properly in the vertically polarized plane adsorb light, become excited, and subsequently emit light. The emitted light is measured in both horizontal and vertical planes. The anisotropy value (A), is the ratio between the light intensities following the equation:
A=(Intensity with horizontal polarizer—Intensity with vertical polarizer)/(Intensity with horizontal polarizer+2* Intensity with vertical polarizer).
The fluorescence anisotropy measurements were performed in a 96-well flat bottom plate using a Molecular Devices M5 multi-mode plate reader.
The assay buffer used was phosphate-buffered saline (PBS), pH 7.4 with 0.01% Tween 20. […]
IC50 values were determined by data fitting with the following equation using KaleidaGraph v4.03: […]
Kd values were determined by data fitting with the following equation using KaleidaGraph v4.03: […]

[2] = clinical; settings: for accumulation and retention in tumours (SPECT): up to 141 hours post injection
Method: A dosimetry study was carried out using Compound 3 to investigate the suitability of the compounds described herein for use in imaging and radiotherapy.
The radiolabelling procedure used was as follows. Compound 3 was dissolved in ultrapure water (2 μg/μl) and 1.5 mL of 0.4 M sodium acetate buffer at pH 4.8 (8 mg/mL). Gentisic acid was added and the mixture was transferred to a ^177Lu V-vial. The vial was heated for 25 minutes at 95° C.
(§1) Pre-therapeutic positron emission tomography/computed tomography (PET/CT) imaging was carried out 1 hour and 3 hours post injection with the imaging agent. […] Patient 1 was then administered with the therapeutic agent. […] single-photon emission computed tomography (SPECT) imaging was then carried out 1.5 hours, 17 hours, 41 hours, 65 hours and 141 hours post injection with the therapeutic agent.
(§2) Patient 2 was then administered with the therapeutic agent. […] SPECT imaging was then carried out 4.5 hours, 20 hours, 45 hours, 67 hours and 141 hours post injection with the therapeutic agent.
(§3) PET/CT imaging was performed using a Siemens Biograph mCT Flow PET/CT. SPECT imaging was performed using a Siemens Intevo SPECT/CT.

[3] = test system: tumours; settings: human, in vivo
Method: The radiolabelling procedure used was as follows.
as §1, §2, §3

[4] = patient 1, 835 MBq, tumours (individual clusters)
[5] = patient 2, 959 MBq, tumours (individual VOIs)

- IC50 [1]: 320 ± 37 nM
- Kd [1]: 6.9 ± 0.8 nM
SMILES: CC(=O)N[C@@H](C)C(=O)NCC(=O)N[C@@H](CO)C(=O)N[C@H]1CSSC[C@@H](C(=O)N[C@@H](Cc2ccc(O)cc2)C(=O)N[C@@H](CCC(=O)O)C(=O)N[C@H](C(=O)N[C@@H](CCC(=O)O)C(=O)NCC(=O)N[C@H](C(=O)NCC(=O)NCC(=O)NCC(=O)N[C@@H](CCCCN)C(N)=O)[C@@H](C)O)[C@@H](C)O)NC(=O)[C@H](Cc2c[nH]c3ccccc23)NC(=O)[C@@H]2CSSC[C@H](NC(=O)[C@H](Cc3ccc(O)cc3)NC1=O)C(=O)N[C@@H](CO)C(=O)NCC(=O)N1CCC[C@H]1C(=O)N1CCC[C@H]1C(=O)N[C@@H](CCCNC(=N)N)C(=O)N[C@@H](Cc1ccccc1)C(=O)N[C@@H](CCC(=O)O)C(=O)N2 [cMet peptide (unlabelled)] (HELM PEPTIDE1{[ac].A.G.S.C.Y.C.S.G.P.P.R.F.E.C.W.C.Y.E.T.E.G.T.G.G.G.K.[am]}$PEPTIDE1,PEPTIDE1,5:R3-17:R3|PEPTIDE1,PEPTIDE1,7:R3-15:R3$$$V2.0)

SMILES: CC(=O)N[C@@H](C)C(=O)NCC(=O)N[C@@H](CO)C(=O)N[C@H]1CSSC[C@@H](C(=O)N[C@@H](Cc2ccc(O)cc2)C(=O)N[C@@H](CCC(=O)O)C(=O)N[C@H](C(=O)N[C@@H](CCC(=O)O)C(=O)NCC(=O)N[C@H](C(=O)NCC(=O)NCC(=O)NCC(=O)N[C@@H](CCCCNC(=O)CN2CCN(CC(=O)O)CCN(CC(=O)O)CCN(CC(=O)O)CC2)C(N)=O)[C@@H](C)O)[C@@H](C)O)NC(=O)[C@H](Cc2c[nH]c3ccccc23)NC(=O)[C@@H]2CSSC[C@H](NC(=O)[C@H](Cc3ccc(O)cc3)NC1=O)C(=O)N[C@@H](CO)C(=O)NCC(=O)N1CCC[C@H]1C(=O)N1CCC[C@H]1C(=O)N[C@@H](CCCNC(=N)N)C(=O)N[C@@H](Cc1ccccc1)C(=O)N[C@@H](CCC(=O)O)C(=O)N2 [^177Lu-Compound 3, metal not drawn] (Ac-AGSCYCSGPPRFECWCYETEGTGGGK(DOTA)-NH2; disulfide 4-16, 6-14)
- half-life ([2]; human, kidney (left), Half-life, patient 2, 959 MBq): 37 h
- half-life ([2]; human, kidney (left), Halflife, patient 1, 835 MBq): 21 h
- half-life ([2]; human, kidney (right), Half-life, patient 2, 959 MBq): 40 h
- half-life ([2]; human, kidney (right), Halflife, patient 1, 835 MBq): 21 h
- half-life ([2]; human, liver, Half-life, patient 2, 959 MBq): 77 h
- half-life ([2]; human, liver, Halflife, patient 1, 835 MBq): 73 h
- half-life ([2]; human, spleen, Half-life, patient 2, 959 MBq): 58 h
- half-life ([2]; human, spleen, Halflife, patient 1, 835 MBq): 39 h
- half-life ([2]; human, tumours (individual VOIs), Half-life, patient 2, 959 MBq): 28 h
- half-life ([2]; human, tumours (individual clusters), Halflife, patient 1, 835 MBq): 42 h
- Dose ([2]; patient 1, 835 MBq, kidney (left)): 1.04 Gy
- Dose ([2]; patient 1, 835 MBq, kidney (right)): 1.02 Gy
- Dose [2, 4]: 0.4 Gy and 0.43 Gy and 0.36 Gy
- Halflife [2, 4]: 48 h and 32 h and 59 h
- accumulation and retention in tumours (SPECT) ([2]; patient 1, 835 MBq): accumulation and retention
- Dose ([2]; patient 2, 959 MBq, kidney (left), VOI 2466): 1.87 Gy
- Dose ([2]; patient 2, 959 MBq, kidney (left), VOI K-l-iso (Isocont.)): 1.73 Gy
- Dose ([2]; patient 2, 959 MBq, kidney (right), VOI 2548): 1.06 Gy
- Dose [2, 5]: 0.08 Gy and 0.05 Gy and 0.04 Gy
- half-life [2, 5]: 27 h
- accumulation and retention in tumours (SPECT) ([2]; patient 2, 959 MBq): accumulation and retention

SMILES: CC(=O)N[C@@H](C)C(=O)NCC(=O)N[C@@H](CO)C(=O)N[C@H]1CSSC[C@@H](C(=O)N[C@@H](Cc2ccc(O)cc2)C(=O)N[C@@H](CCC(=O)O)C(=O)N[C@H](C(=O)N[C@@H](CCC(=O)O)C(=O)NCC(=O)N[C@H](C(=O)NCC(=O)NCC(=O)NCC(=O)N[C@@H](CCCCNC(=O)CN2CCN(CC(=O)O)CCN(CC(=O)O)CCN(CC(=O)O)CC2)C(N)=O)[C@@H](C)O)[C@@H](C)O)NC(=O)[C@H](Cc2c[nH]c3ccccc23)NC(=O)[C@@H]2CSSC[C@H](NC(=O)[C@H](Cc3ccc(O)cc3)NC1=O)C(=O)N[C@@H](CO)C(=O)NCC(=O)N1CCC[C@H]1C(=O)N1CCC[C@H]1C(=O)N[C@@H](CCCNC(=N)N)C(=O)N[C@@H](Cc1ccccc1)C(=O)N[C@@H](CCC(=O)O)C(=O)N2 [^68Ga-Compound 3, metal not drawn] (Ac-AGSCYCSGPPRFECWCYETEGTGGGK(DOTA)-NH2; disulfide 4-16, 6-14)
- accumulation in tumours (PET/CT) [3]: accumulation
